Test [1] has as its target HLA-A*24:02. Kind of test: IEDB peptide-MHC binding, purified MHC/competitive/fluorescence; ≥ and ≤ were set here for values at or beyond the usual limits of such assays. The settings on record: source organism: Zaire ebolavirus.
For test [2], the target named is HLA-B*07:02. The test is described as above. The settings on record: source organism: Zaire ebolavirus.
Test [3] addresses HLA-B*08:01. The description is as above. The settings on record: source organism: Zaire ebolavirus.
In test [4] the target is HLA-B*15:01. The description is as above. The settings on record: source organism: Zaire ebolavirus.
Test [5] concerns the target HLA-A*02:03. Put plainly: IEDB peptide-MHC binding, purified MHC/direct/fluorescence; filed as Kd, often an IC50 or EC50 that approximates it; ≥ and ≤ were set here for values at or beyond the usual limits of such assays.
For test [6], the target named is HLA-A*02:11. The test is described as above.
In test [7] the target is HLA-A*02:12. The description is as above.
Test [8] deals with HLA-A*02:16. The test is described as above.
Test [9] deals with HLA-A*02:19. The test is described as above.
Test [10] concerns the target HLA-A*03:01. The test is described as above.
The target of test [11] is HLA-A*23:01. Described as above.
Test [12] addresses HLA-A*24:03. The test is described as above.
In test [13] the target is HLA-A*68:02. The description is as above.
The target in test [14] is HLA-B*07:02. Described as above. The settings on record: source organism: Zaire ebolavirus.
Test [15] addresses HLA-A*02:01. Put plainly: IEDB peptide-MHC binding, purified MHC/competitive/fluorescence; filed as Kd, often an IC50 or EC50 that approximates it; ≥ and ≤ were set here for values at or beyond the usual limits of such assays.
Test [16] deals with HLA-A*26:01. The test is described as above.
In test [17] the target is HLA-A*69:01. Described as above.
The target in test [18] is HLA-B*15:01. Described as above.
Test [19] concerns the target HLA-B*15:17. The description is as above.
The target in test [20] is HLA-B*18:01. Described as above.
For test [21], the target named is HLA-B*27:03. Described as above.
For test [22], the target named is HLA-B*39:01. The test is described as above.
The target in test [23] is HLA-B*46:01. The description is as above.
For test [24], the target named is HLA-B*51:01. Described as above.
For test [25], the target named is HLA-B*57:01. Described as above.
Test [26] concerns the target HLA-A*29:02. Put plainly: IEDB peptide-MHC binding, purified MHC/direct/fluorescence; filed as Kd, often an IC50 or EC50 that approximates it; ≥ and ≤ were set here for values at or beyond the usual limits of such assays.
Test [27] deals with HLA-B*27:05. The description is as above. The settings on record: source organism: Reston ebolavirus - Reston.
The target in test [28] is HLA-A*02:01. Put plainly: IEDB peptide-MHC binding, purified MHC/competitive/fluorescence; ≥ and ≤ were set here for values at or beyond the usual limits of such assays. The settings on record: source organism: Zaire ebolavirus.
For test [29], the target named is HLA-B*40:01. Kind of test: IEDB peptide-MHC binding, purified MHC/direct/fluorescence; filed as Kd, often an IC50 or EC50 that approximates it; ≥ and ≤ were set here for values at or beyond the usual limits of such assays. The settings on record: source organism: Ebola virus - Eckron (Zaire, 1976).
[30] abbreviates: source organism: Zaire ebolavirus.
Where [31] appears, read: source organism: Reston ebolavirus.

For orientation: IC50 means the concentration that inhibits the measured activity by half. The Kd is a measure of binding affinity in units of concentration. A higher Kd goes with a looser complex. As to RDRFKRTSF, the IC50 in [1] was 18.9 µM; in [2], ≥ 74.2 µM; in [3] it was ≥ 114 µM; in test [4], 36.4 µM. Further, the Kd in [5] (setting [30]), in test [6] (setting [30]), in test [7] (setting [30]), in test [8] (setting [30]), in test [9] (setting [30]) and in test [10] (setting [30]) was ≥ 20 µM each time. Besides, the Kd was ≥ 20 µM in [11] (setting [30]); ≥ 20 µM in test [12] (setting [30]); ≥ 20 µM in [13] (setting [30]); ≥ 20000 nM in [14]; ≥ 20 µM in [15] (setting [30]); ≥ 20 µM in test [16] (setting [30]). The Kd in [17] (setting [30]), in test [18] (setting [30]), in [19] (setting [30]), in test [20] (setting [30]), in test [21] (setting [30]) and in test [22] (setting [30]) was ≥ 20 µM each time. The Kd in [23] (setting [30]), in [24] (setting [30]) and in test [25] (setting [30]) was ≥ 20 µM each time.

With RRELSKEKL, the Kd in test [5] (setting [31]), in [6] (setting [31]), in [7] (setting [31]), in test [8] (setting [31]), in test [9] (setting [31]) and in [10] (setting [31]) was ≥ 20 µM each time. For the same sequence, the Kd in [11] (setting [31]), in [12] (setting [31]), in [26] (setting [31]), in [13] (setting [31]), in test [27] and in test [15] (setting [31]) was ≥ 20 µM throughout. Further, the Kd in test [16] (setting [31]), in test [17] (setting [31]), in [18] (setting [31]), in [19] (setting [31]), in [20] (setting [31]) and in [21] (setting [31]) was ≥ 20 µM throughout. Also, the Kd in test [22] (setting [31]), in test [23] (setting [31]), in test [24] (setting [31]) and in test [25] (setting [31]) was ≥ 20 µM in each case.

Regarding HPLARTAKV, the IC50 is ≥ 113 µM in test [28], 3.11 µM in test [2] and 54.5 µM in test [3]. Moreover, the Kd in [5] (setting [30]), in test [6] (setting [30]), in [7] (setting [30]), in test [8] (setting [30]), in test [9] (setting [30]) and in [10] (setting [30]) was ≥ 20 µM in each case. Moreover, the Kd was ≥ 20 µM in [11] (setting [30]); ≥ 20 µM in [12] (setting [30]); ≥ 20 µM in test [26] (setting [30]); ≥ 20 µM in test [13] (setting [30]); 45.9 nM in test [14]; ≥ 20 µM in test [15] (setting [30]). The Kd in [16] (setting [30]), in [18] (setting [30]), in [19] (setting [30]), in [20] (setting [30]), in test [21] (setting [30]) and in test [22] (setting [30]) was ≥ 20 µM throughout. For the same sequence, the Kd in [23] (setting [30]) was ≥ 20 µM; in test [24] (setting [30]), 0.201 µM; in test [25] (setting [30]) it was ≥ 20 µM.

For the sequence KEGKLQCRI, the Kd in test [5] (setting [30]), in [6] (setting [30]), in [7] (setting [30]), in [8] (setting [30]), in [9] (setting [30]) and in test [10] (setting [30]) was ≥ 20 µM in each case. Besides, the Kd in test [11] (setting [30]), in test [12] (setting [30]), in test [26] (setting [30]), in [13] (setting [30]), in test [29] and in test [15] (setting [30]) was ≥ 20 µM throughout. Moreover, the Kd in test [16] (setting [30]), in test [17] (setting [30]), in test [18] (setting [30]), in test [19] (setting [30]), in test [20] (setting [30]) and in test [21] (setting [30]) was ≥ 20 µM in each case. The Kd in test [22] (setting [30]), in test [23] (setting [30]), in test [24] (setting [30]) and in [25] (setting [30]) was ≥ 20 µM in each case.

(Values after the Immune Epitope Database (IEDB).)
